The values that follow come from US9574016B2, “Complex of bi-specific antibody and digoxigenin conjugated to a therapeutic or diagnostic agent” (Hoffmann-La Roche Inc., priority 2009, dated 2017).

Where “and” joins values, the source holds several entries; their conditions need not be identical. Equal entries are not always repeated. Non-standard residues stand in square brackets, D forms with d. Residues, ends and D or L forms follow the SMILES beside them. No end group written: not given here. PEG3 = NCCOCCOCCOCCC(=O)O

A short description of data set [1]: Excitation and emission spectra. In kind it is physicochemical. The source says: To evaluate whether digoxygenation of Cy5 alters its fluorescence features, we compared the excitation and emission spectra of Cy5 and compared it with the spectra of the newly generated Dig-Cy5 and with Dig-Cy5 within a complex with bispecific antibodies. […] We conclude that Dig-Cy5 and —complexes can be applied for antibody-mediated targeting and in vivo imaging.

In data set [2] the test system is CD22 positive Raji and Ramos cells. Description: FACS analysis with <CD22>-<DIG> and DIG-Cy5. Format: cell-based. The note with it: DIG-Cy5 66.4 nM. The procedure: For these analyses we used CD22 positive Raji and Ramos cells and the bispecific <CD22>-<DIG> antibody. 3×10^5 cells per well of a 96-well-plate were incubated with 5 ng/ml of the <CD22>-<DIG> antibody in FACS buffer (PBS containing 5% FCS). After washing the cells were incubated with DIG-Cy5 in a final concentration of 66.4 nM. After another washing step cells were analysed with the FACS canto II (BD Biosciences).
(In general: In flow cytometry, cells or beads pass a laser one at a time.)

For data set [3], the system named is IGF1R expressing tumors (H322M cells). Briefly: NIRF tumor imaging with Dig-Cy5 complexes, H322M xenograft. The settings on record: 30 min, i.v. In kind it is in vivo, mice. As for the experimental part: To analyze if the specific antigen binding functionality of the antibody-complexes can be utilized to specifically deliver imaging reagents to tumor cells, we performed Near Infrared Fluorescence Imaging Studies (NIRF) in vivo. […] These xenografts were either expressing the antigen Her2 (KPL4 cells) or the antigen IGF1R (H322M cells). Subsequently NIRF imaging was performed by using the Maestro system from CRI. Animals were placed in a measuring chamber and the fluorescence was measured over a defined spectral wavelength array, depending on the dye. Spectral information of each pixel of the obtained image was analyzed by a special software which allows to separate different pre-defined spectra, e.g. autoflourescence and the signal of the dye. Theses separated specific signals were quantified by the Maestro software in order to compare different samples.

Data set [4] concerns H322M (low surface Her2) and KPL4 (high surface Her2) cells. Description: CytoTox-Glo assay of DIG-peptide-<Her2>-<Dig> complexes. In kind it is cell-based, human. The note with it: 48 hours. The source says: To analyze whether the <Her2>-<Dig>-Dig-Peptide complexes, and <IGF1R>-<Dig>-Dig-Peptide complexes mediate specific targeting of their payload towards antigen expressing cells, we made use of the fact that the FALLv1 and Fam5b peptides are cytotoxic. […] To measure the number of dead cells, the CytoTox-Glo assay (Promega Madison, Wis.) was used. To analyze the specificity of the targeting, two cell lines were used: H322M which have low levels of surface Her2 and KPL4 which have high levels of surface Her2.
For these assays, H322M cells were seeded at a density of 15.000 cells per well in 96 well plates. The cells were incubated for 24 hours at 37° C., 5% CO2 and 85% humidity in RPMI with 10% FCS, Na+Pyrovate, L-Glutamine and NEAA mix. KPL4 cells were seeded at a density of 7.000 cells per well in 96 well plates. The cells were incubated for 24 hours at 37° C., 5% CO2 and 85% humidity in RPMI with 10% FCS, and L-Glutamine. […] The cells were incubated for further 48 hours. After this period, the cells were treated with the CytoTox-Glo-assay reagent according to the manufacturers instructions. In brief, this assay detects dead cells via the presence of a protease in the medium that cleaves a flurogenic peptide in the reagent. The luminescence of this assay therefore represents dead cells. The 96 well plates were then analyzed in a InfiniteF200 luminescence reader (Tecan Austria, Gröding).

For data set [5], the target named is siRNA-DIG (Eg5-siRNA-DIG). Briefly: SPR (Biacore) binding to mono-digoxygenated siRNA. The settings on record: 25° C. A general note: SPR reads the build-up and loss of mass on a sensor chip optically.
Procedure: (§2) For that, binding properties of the recombinant <Dig> derivatives were analyzed by surface plasmon resonance (SPR) technology using a Biacore T100 or Biacore 3000 instrument (GE Healthcare Bio-Sciences AB, Uppsala). […] It allows a continuous real-time monitoring of ligand/analyte bindings and thus the determination of association rate constants (ka), dissociation rate constants (kd), and equilibrium constants (KD) in various assay settings. SPR-technology is based on the measurement of the refractive index close to the surface of a gold coated biosensor chip. Changes in the refractive index indicate mass changes on the surface caused by the interaction of immobilized ligand with analyte injected in solution. If molecules bind to immobilized ligand on the surface the mass increases, in case of dissociation the mass decreases. To perform the binding studies capturing anti-human IgG antibody was immobilized on the surface of a CM5 biosensor chip using amine-coupling chemistry. […]
(§3) Anti-mouse IgG antibody was immobilized on the surface of a CM5 biosensor chip in the same fashion as described above. […] The samples to be analyzed were diluted in HBS-P (10 mM HEPES, pH 7.4, 150 mM NaCl, 0.005% Surfactant P20) and injected at a flow rate of 5 μl/min. […] Signals were detected at a rate of one signal per second.
(§4) The samples to be analyzed were diluted in HBS-P and injected at a flow rate of 5 μl/min. […]
Data set [6] addresses siRNA-(2x)DIG (Eg5-siRNA-(2×)DIG). Briefly: SPR (Biacore) binding to bi-digoxygenated siRNA. The note with it: 25° C.
Procedure: as §2, §3, §4
For data set [7], the system named is DIG-Myoglobin. Description: SPR study, binding to DIG-myoglobin. As for the experimental part: (§1) For that, binding properties of the recombinant <Dig> derivatives were analyzed by surface plasmon resonance (SPR) technology using a Biacore T100 or Biacore 3000 instrument (GE Healthcare Bio-Sciences AB, Uppsala). This system is well established for the study of molecule interactions. It allows a continuous real-time monitoring of ligand/analyte bindings and thus the determination of association rate constants (ka), dissociation rate constants (kd), and equilibrium constants (KD) in various assay settings. SPR-technology is based on the measurement of the refractive index close to the surface of a gold coated biosensor chip. Changes in the refractive index indicate mass changes on the surface caused by the interaction of immobilized ligand with analyte injected in solution. If molecules bind to immobilized ligand on the surface the mass increases, in case of dissociation the mass decreases. To perform the binding studies capturing anti-human IgG antibody was immobilized on the surface of a CM5 biosensor chip using amine-coupling chemistry. Flow cells were activated with a 1:1 mixture of 0.1 M N-hydroxysuccinimide and 0.1 M 3-(N,N-dimethylamino)propyl-N-ethylcarbodiimide at a flow rate of 5 μl/min. […] A reference control flow cell was treated in the same way but with vehicle buffers only instead of the capturing antibody. Surfaces were blocked with an injection of 1 M ethanolamine/HCl pH 8.5. To compare the binding of the humanized protein variants with that of the murine <Dig> IgG from the original hybridoma 19-11, capturing anti-mouse IgG antibody was immobilized on the surface of a CM5 biosensor chip in the same fashion as described above for the anti-human IgG antibody. To evaluate the functionality of the recombinant <Dig> derivatives, binding of the recombinant hu<Dig> modules, incl. […]

In data set [8] the test system is DIG-siRNA2349. Briefly: SPR study, binding to DIG-siRNA2349. The note with it: analyte DIG-siRNA2349; listed as <DIG>M-19-11. As for the experimental part:
as §1, with “antibody.” for “antibody. Surfaces were blocked with an injection of 1 M ethanolamine/HCl pH 8.5. To compare the binding of the humanized protein variants with that of the murine <Dig> IgG from the original hybridoma 19-11, capturing anti-mouse IgG antibody was immobilized on the surface of a CM5 biosensor chip in the same fashion as described above for the anti-human IgG antibody. To evaluate the functionality of the recombinant <Dig> derivatives, binding of the recombinant hu<Dig> modules, incl.”

Setting [9] is: analyte DIG-Myoglobin, listed as <DIG>M-19-11.

For `CCN1c2ccc(S(=O)(=O)O)cc2C(C)(C)C1/C=C/C=C/C=C1\N(CCCCCC(=O)NCCNC(=O)CO[C@H]2CC[C@@]3(C)[C@H](CC[C@@H]4[C@@H]3C[C@@H](O)[C@]3(C)[C@@H](C5=CC(=O)OC5)CC[C@]43O)C2)c2ccc(S(=O)(=O)O)cc2C1(C)C` (stereo partly drawn) [Dig-Cy5], the “Emission wavelength (max.)” value in data set [1] turned out to be 670 nm. Besides, the “binding to Raji or Ramos cells (FACS)” value in data set [2] is given as “hardly any binding”. Further, the “tumor visualization by NIRF” value in data set [3] is reported as “no tumor specific fluorescence”.

For the molecule `CC[C@H](C)[C@H](NC(=O)[C@H](CCCCN)NC(=O)[C@H](CCC(=O)O)NC(=O)[C@H](CCCCN)NC(=O)[C@H](CO)NC(=O)[C@H](CCCCN)NC(=O)[C@H](CCCNC(=N)N)NC(=O)[C@H](Cc1ccccc1)NC(=O)[C@H](Cc1ccccc1)NC(=O)[C@H](CC(=O)O)NC(=O)CNC(=O)[C@H](CC(C)C)NC(=O)[C@H](CC(C)C)NC(=O)[C@H](C)NC(=O)[C@H](Cc1ccccc1)NC(=O)[C@@H](N)CSC1CC(=O)N(CCNC(=O)CO[C@H]2CC[C@@]3(C)[C@H](CC[C@@H]4[C@@H]3C[C@@H](O)[C@]3(C)[C@@H](C5=CC(=O)OC5)CC[C@]43O)C2)C1=O)C(=O)NCC(=O)N[C@@H](CCCCN)C(=O)N[C@@H](CCC(=O)O)C(=O)N[C@@H](Cc1ccccc1)C(=O)N[C@@H](CCCCN)C(=O)N[C@@H](CCCNC(=N)N)C(=O)N[C@H](C(=O)N[C@H](C(=O)N[C@@H](CCC(N)=O)C(=O)N[C@@H](CCCNC(=N)N)C(=O)N[C@H](C(=O)N[C@@H](CCCCN)C(=O)N[C@@H](CC(=O)O)C(=O)N[C@@H](Cc1ccccc1)C(=O)N[C@@H](CC(C)C)C(=O)N[C@@H](CCCNC(=N)N)C(=O)N[C@@H](CC(N)=O)C(=O)N[C@@H](CC(C)C)C(=O)N[C@H](C(=O)N1CCC[C@H]1C(=O)N[C@@H](CCCNC(=N)N)C(=O)N[C@H](C(=O)N[C@@H](CCC(=O)O)C(=O)N[C@@H](CO)C(N)=O)[C@@H](C)O)C(C)C)[C@@H](C)CC)C(C)C)[C@@H](C)CC` (stereo partly drawn) [Dig-FALLv1], the “cytotoxicity when delivered by the <Her2>-<Dig> bispecific antibody, H322M compared to KPL4” value in data set [4] is recorded as “more toxic to cells expressing higher levels of surface antigen”.

Take `CC[C@H](C)[C@H](NC(=O)[C@H](CCCCN)NC(=O)[C@H](CCC(=O)O)NC(=O)[C@H](CCCCN)NC(=O)[C@H](CO)NC(=O)[C@H](CCCCN)NC(=O)[C@H](CCCNC(=N)N)NC(=O)[C@H](Cc1ccccc1)NC(=O)[C@H](Cc1ccccc1)NC(=O)[C@H](CC(=O)O)NC(=O)CNC(=O)[C@H](CC(C)C)NC(=O)[C@H](CC(C)C)NC(=O)[C@H](C)NC(=O)[C@@H](N)Cc1ccccc1)C(=O)NCC(=O)N[C@@H](CCCCN)C(=O)N[C@@H](CCC(=O)O)C(=O)N[C@@H](Cc1ccccc1)C(=O)N[C@@H](CCCCN)C(=O)N[C@@H](CCCNC(=N)N)C(=O)N[C@H](C(=O)N[C@H](C(=O)N[C@@H](CCC(N)=O)C(=O)N[C@@H](CCCNC(=N)N)C(=O)N[C@H](C(=O)N[C@@H](CCCCN)C(=O)N[C@@H](CC(=O)O)C(=O)N[C@@H](Cc1ccccc1)C(=O)N[C@@H](CC(C)C)C(=O)N[C@@H](CCCNC(=N)N)C(=O)N[C@@H](CC(N)=O)C(=O)N[C@@H](CC(C)C)C(=O)N[C@H](C(=O)N1CCC[C@H]1C(=O)N[C@@H](CCCNC(=N)N)C(=O)N[C@H](C(=O)N[C@@H](CCC(=O)O)C(=O)N[C@@H](CO)C(N)=O)[C@@H](C)O)C(C)C)[C@@H](C)CC)C(C)C)[C@@H](C)CC` [FALLv1]: the “cytotoxicity of the <Her2>-<Dig> complex towards antigen expressing target cells compared to non-complexed peptide” value in data set [4] is recorded as “higher”.

As to Cy5 [reference compound], the “Emission wavelength (max.)” value in data set [1] turned out to be 670 nm.

Consider “DIG-Fam5b: digoxigenin conjugate of Fam5b with TEG-spacer and amino-terminal cystein (C[PEG3]QHRYQQLGAGLKVLFKKTHRILRRLFNLAK; also: digoxigenin conjugate, attachment site not given here)”, for which, in data set [4], the “cytotoxicity when delivered by the <Her2>-<Dig> bispecific antibody, H322M compared to KPL4” value is given as “correlates with the levels of surface antigen”.

Consider `CC[C@H](C)[C@H](NC(=O)[C@H](CCCNC(=N)N)NC(=O)[C@H](Cc1c[nH]cn1)NC(=O)[C@@H](NC(=O)[C@H](CCCCN)NC(=O)[C@H](CCCCN)NC(=O)[C@H](Cc1ccccc1)NC(=O)[C@H](CC(C)C)NC(=O)[C@@H](NC(=O)[C@H](CCCCN)NC(=O)[C@H](CC(C)C)NC(=O)CNC(=O)[C@H](C)NC(=O)CNC(=O)[C@H](CC(C)C)NC(=O)[C@H](CCC(N)=O)NC(=O)[C@H](CCC(N)=O)NC(=O)[C@H](Cc1ccc(O)cc1)NC(=O)[C@H](CCCNC(=N)N)NC(=O)[C@H](Cc1c[nH]cn1)NC(=O)[C@@H](N)CCC(N)=O)C(C)C)[C@@H](C)O)C(=O)N[C@@H](CC(C)C)C(=O)N[C@@H](CCCNC(=N)N)C(=O)N[C@@H](CCCNC(=N)N)C(=O)N[C@@H](CC(C)C)C(=O)N[C@@H](Cc1ccccc1)C(=O)N[C@@H](CC(N)=O)C(=O)N[C@@H](CC(C)C)C(=O)N[C@@H](C)C(=O)N[C@@H](CCCCN)C(=O)O` [Fam5b] (H-QHRYQQLGAGLKVLFKKTHRILRRLFNLAK-OH), for which, in data set [4], the “cytotoxicity of the <Her2>-<Dig> complex towards antigen expressing target cells compared to non-complexed peptide” value was “higher”.

B1: murine DIG-IgG 19-11: murine <Dig> IgG1 kappa from mouse hybridoma clone 19-11; VL Seq. ID. NO. 1, VH Seq. ID. NO. 2 (antibody, listed as Mus musculus, V domains shown)
VH: MNFVLSLIFLALILKGVQCEVQLVESGGGLVKPGGSLKLSCAVSGFTFSDYAMSWIRQTPENRLEWVASINIGATYAYYPDSVKGRFTISRDNAKNTLFLQMSSLGSEDTAMYYCARPGSPYEYDKAYYSMAYWGPGTSVTVSS
VL: MSSAQFLGLLLLCFQGTRCDVQMTQSTSSLSASLGDRVTISCRASQDIKNYLNWYQQKPGGTVKLLIYYSSTLLSGVPSRFSGRGSGTDFSLTITNLEREDIATYFCQQSITLPPTFGGGTKLEIK
notes: murine <Dig> IgG1 kappa from mouse hybridoma clone 19-11; ID; NO
As for B1, the Kd stood at 0.269 nM in data set [5] and 0.017 nM in data set [6]. Further, in data set [7], the “affinity to DIG-myoglobin relative to <DIG>-hu2 and disulfide-stabilized <DIG> scFv” value is reported as “about a hundred fold better”. In addition, the ka was 1.75e+06 M⁻¹ s⁻¹ and 2.28e+06 M⁻¹ s⁻¹ in data set [7] (setting [9]); 3.27e+06 M⁻¹ s⁻¹ and 2.26e+06 M⁻¹ s⁻¹ in data set [8]. In addition, the kd in data set [7] (setting [9]) is 0.000676 s⁻¹ and 0.000675 s⁻¹; in data set [8], 0.000903 s⁻¹ and 0.000838 s⁻¹.

As usually defined, the Kd is the free concentration of one partner at which half of the binding sites on the other are occupied at equilibrium, for simple one-to-one binding.
